# Experiment: soluble on expression in E. coli; label from the status in PepcDB or PDB records
row,Sequence,soluble on expression in E. coli
1,GPLGSKVDLFDFELPERLIAQVPLEQRDASRLMVLDKHTGELTDSSFKHIISFFNEGDCLVLNNTRVLPARLFGTKEDTGAKVELLLLKQETGDKWETLAKPAKRVKKGTVVTFGDGRLKAICTEELEHGGRKMEFQYDGIFYEVLESLGEMPLPPYIKEQLDDKERYQTVYSKEIGSAAAPTAGLHFTEEILQQLKDKGVQIEFITLHVGLGTFRPVSADEVEEHNMHAEFYQMSEETAAALNKVRENGGRIISVGTTSTRTLETIAGEHDGQFKASSGWTSIFIYPGYEFKAIDGMITNFHLPKSSLIMLVSALAGRENILRAYNHAVEEEYRFFSFGDAMLII,soluble
2,GPLGSMDAKARNCLLQHREALEKDIKTSYIMDHMISDGFLTISEEEKVRNEPTQQQRAAMLIKMILKKDNDSYVSFYNALLHEGYKDLAALLHDGIPVVSSS,soluble
3,GPLGSMTGPSVHDRALGAFLGLAVGDALGATVEFMTKGEIAQQYGIHRKMTGGGWLRLKPGQITDDTEMSLALGRSLAAKGTLDVADICEEFALWLKSRPVDVGNTCRRGIRRYMHEGTTTAPYSEGDAGNGAAMRCLPAALATLGHPADLEPWVLAQARITHNHPLSDAACLTLGRMVHHLIGGRGMKACREEANRLVHQHRDFHFEPYKGQSSAYIVDTMQTVLHYYFVTDTFKSCLIQTVNQGGDADTTGALAGMLAGATYGVDDIPSGWLSKLDMKVEREIRRQVDALLALAGLD,soluble
4,GPLGSYGDAIPEVKAILEAKNEEELVTFTSRWSAEERKELRTQFQDTTGLEFIAFLKKCIKNGPYEDVMALGWDCNISARVNVIKKAMKNVNDFRAIHDVVLIATPDERLKLAQAYKEKTGNDLLQDFVDQIPLTSAASYLCHLAIRENRTPRGSVASDAEVLKHNLIDADEPDHEAVVRLIITSTADEYKEINHRFEVLTGKSVQEAIETRYADKENARGLCIAHYYNLAPARAVAYAFHSAVETQNDDMAYEQAARITGLFHDLHKFAWVHYACWGVMRDDILSRFQSKEANKVNFRDACLMFWKLAK,soluble
5,GQAQTQVKIISQKSDEINEAITRKIDRGSTLLHTETGYLHSRQNMILTVISNRELSKLNQLVMEIDPTAFMIIGKVNEVHGNGFTLPKKHAVKTEK,not soluble
6,GQELPPGTYRVDIYLNNGYMATRDVTFNTGDSEQGIVPCLTRAQLASMGLNTASVAGMNLLADDACVPLTTMVQDATAHLDVGQQRLNLTIPQAFMSNRARGYIPPELWDPGINA,soluble
7,GQQINIHKPPIPERVQTIQGQVLFTKDDIVHGQQVWQSIGGQQIGSVWGHGSYVAPDWTADWLHREATIMLDSWAQEQGHEHYSDLPAEQQAALKERLKKTMRSNTYDAQTGTITLDDLRVDAMRSNAQYYSELFRDGHEHYAIPQNALNDKAAADDMTAFFWWTSWSASTNAPDSDISYTQNWPHEPLIDNAPPTGNI,not soluble
8,GRAPRNGEKVLVEFVSANPTGPLHVGHARQAALGDAICRLYDASGWDVTREFYYNDAGNQIDNLAISVQARGRGIAPDAPDYPTDGYKGDYIVEIARDFAARKSVQASDGQPVTATGDLDSLDDIRAFAVAYLRREQDLDLQAFGLAFDNYFLESSLYASGRVQETVDTLVAKGHTYEEGGALWLRTTELGTGDDKDRVMRKSEGGYTYFVPDVAYHKVKWERGFHHAVNIQGSDHHGTVARVRAGLQGLEAGIPKDFPAYVLHKMVKVMRGGEEVKISKRAGSYVTMRDLIDWVGRDAVRYFLIQRRADTEFVFDIDLALSKSDENPVYYIQYAHARICTMIGNSGA,not soluble
9,GRPYKLLNGIKLGVYIPQEWHDRLMEIAKEKNLTLSDVCRLAIKEYLDNHDKQKK,soluble
10,GRYEIRFSGAGGQGLILAGVIMAEAASIYDGKQAVQSQSYGPEARGGASKSEVIISDGPVDYPKATQCDALLALTQEACDKYSADLKEGGVLLVDSDLVTKLPPGNYQTTAFNIINTAKNDVGREIVANIVALGAMVALTGVVSKEAAEKAVLSRVPEAFVELNRKAFQMGFEKALAAKK,soluble
11,GSAASSALKGLIQQFTTITGASESVGKHMLEACNNNLEMAVTMFLDGGG,soluble
12,GSARPSSSMADFRKFFAKAKHIVIISGAGVSAESGVPTFRGAGGYWRKWQAQDLATPLAFAHNPSRVWEFYHYRREVMGSKEPNAGHRAIAECETRLGKQGRRVVVITQNIDELHRKAGTKNLLEIHGSLFKTRCTSCGVVAENYKSPICPALSGKGAPEPGTQDASIPVEKLPRCEEAGCGGLLRPHVVWFGENLDPAILEEVDRELAHCDLCLVVGTSSVVYPAAMFAPQVAARGVPVAEFNTETTPATNRFRFHFQGPCGTTLPEALA,soluble

# — the DeepSol protein solubility set
